# Data from the Human Domainome abundance scans (Beltran et al. 2025).
# ± gives the uncertainty stated by the source.
# B1: Cytoplasmic polyadenylation element-binding protein 2, residues 513 to 575; numbered along this chain, Q7Z5Q1 (parent)
# chain: KRVEVKPYVLDDQMCDECQGARCGGKFAPFFCANVTCLQYYCEFCWANIHSRAGREFHKPLVK
# B2: POU domain, class 3, transcription factor 1, residues 247 to 324; numbered along this chain, Q03052 (parent)
# chain: EDAPSSDDLEQFAKQFKQRRIKLGFTQADVGLALGTLYGNVFSQTTICRFEALQLSFKNMCKLKPLLNKWLEETDSSS
# Variants of: B1
# Assay: abundance fitness (aPCA) (normalised: wild type 0, dead -1); higher = more abundant; growth selection in yeast, the domain comes from the species named
# Conditions: Homo sapiens
row,Variant,abundance fitness
1,R2K,0.101 ± 0.058
2,K1Y,-0.236 ± 0.088
3,K1E,0.038 ± 0.063
4,K1H,-0.599 ± 0.23
5,K1A,-0.32 ± 0.11
6,K1T,-0.036 ± 0.078
7,K1I,-0.215 ± 0.21
8,K1M,-0.184 ± 0.084
9,K1R,-0.216 ± 0.052
10,K1Q,-0.248 ± 0.09
11,K1L,-0.417 ± 0.074
12,K1G,-0.218 ± 0.053
13,K1N,0.143 ± 0.078
14,K1C,-0.276 ± 0.076
15,K1F,-0.292 ± 0.11
16,K1W,-0.985 ± 0.17
17,K1D,-0.01 ± 0.066
18,K1V,-0.509 ± 0.087
19,K6M,-0.028 ± 0.049
20,K6E,-0.069 ± 0.048
21,K6R,-0.128 ± 0.034
22,K6G,-0.017 ± 0.033

row,Variant,abundance fitness
1,K6F,-0.337 ± 0.066
2,K6A,-0.045 ± 0.038
3,K6L,-0.297 ± 0.037
4,K6V,-0.104 ± 0.034
5,K6W,-0.315 ± 0.042
6,K6N,0.006 ± 0.063
7,K6Y,-0.382 ± 0.1
8,K6S,-0.085 ± 0.039
9,K6Q,-0.083 ± 0.044
10,K6H,-0.225 ± 0.06
11,K6P,-0.102 ± 0.046
12,K6D,0.029 ± 0.065
13,Y8S,0.121 ± 0.044
14,Y8P,0.075 ± 0.047
15,Y8E,0.18 ± 0.053
16,Y8H,-0.036 ± 0.079
17,Y8R,0.064 ± 0.039
18,Y8Q,0.012 ± 0.06
19,Y8N,0.13 ± 0.075
20,Y8I,-0.026 ± 0.07
21,Y8A,0.01 ± 0.04
22,Y8T,-0.026 ± 0.059

row,Variant,abundance fitness
1,Y8K,0.121 ± 0.058
2,Y8G,0.154 ± 0.042
3,Y8V,-0.086 ± 0.044
4,Y8W,-0.091 ± 0.059
5,Y8M,-0.365 ± 0.087
6,Y8C,-0.115 ± 0.08
7,M14R,-0.154 ± 0.059
8,M14Q,-0.036 ± 0.053
9,M14P,-0.007 ± 0.05
10,M14T,0.069 ± 0.045
11,M14S,0.098 ± 0.04
12,M14F,-0.067 ± 0.072
13,M14C,-0.104 ± 0.072
14,M14L,-0.167 ± 0.042
15,M14Y,0.082 ± 0.077
16,M14D,0.039 ± 0.086
17,M14E,-0.073 ± 0.07
18,M14V,-0.085 ± 0.051
19,M14W,-0.352 ± 0.062
20,M14G,-0.187 ± 0.054
21,M14H,-0.33 ± 0.16
22,M14K,0.064 ± 0.057

row,Variant,abundance fitness
1,M14I,-0.082 ± 0.12
2,M14A,-0.098 ± 0.057
3,C15L,-0.531 ± 0.053
4,C15F,-0.588 ± 0.073
5,C15H,-0.418 ± 0.13
6,C15N,-0.592 ± 0.13
7,C15M,-0.507 ± 0.069
8,C15W,-0.759 ± 0.11
9,C15R,-0.606 ± 0.057
10,C15I,-0.626 ± 0.14
11,C15G,-0.531 ± 0.054
12,C15Q,-0.55 ± 0.12
13,C15D,-0.691 ± 0.17
14,C15A,-0.394 ± 0.062
15,C15V,-0.587 ± 0.055
16,C15K,-0.649 ± 0.063
17,C15Y,-0.519 ± 0.12
18,C15P,-0.454 ± 0.084
19,C15S,-0.377 ± 0.054

# Variants of: B2
# Assay: as above
# Conditions: Homo sapiens
row,Variant,abundance fitness
1,D75I,-0.038 ± 0.15
2,D75K,-0.207 ± 0.15
3,D75V,-0.115 ± 0.069
4,D75S,0.138 ± 0.072
5,D75M,-0.4 ± 0.18
6,D75W,-0.262 ± 0.11
7,D75L,-0.214 ± 0.08
8,D75E,0.109 ± 0.078
9,D75T,-0.274 ± 0.15
10,D75R,-0.077 ± 0.061
11,D75Y,0.151 ± 0.29
12,D75P,0.178 ± 0.15
13,D75H,0.395 ± 0.32
14,D75C,0.089 ± 0.13
15,D75Q,0.165 ± 0.12
16,D75A,-0.015 ± 0.074
17,S77Y,0.044 ± 0.087
18,S77V,0.045 ± 0.039
19,S77L,-0.098 ± 0.045
20,S77H,0.054 ± 0.082
21,S77R,-0.022 ± 0.039

row,Variant,abundance fitness
1,S77P,0.071 ± 0.069
2,S77I,-0.113 ± 0.12
3,S77G,0.159 ± 0.036
4,S77E,0.002 ± 0.054
5,S77M,-0.029 ± 0.065
6,S77K,0.096 ± 0.063
7,S77F,-0.243 ± 0.098
8,S77C,-0.165 ± 0.075
9,S77A,0.065 ± 0.041
10,S77W,-0.19 ± 0.059
11,S77T,0.061 ± 0.061
12,S77N,-0.141 ± 0.11
13,S77Q,0.106 ± 0.056
14,S77D,0.036 ± 0.064
15,S76P,0.099 ± 0.079
16,S76G,0.062 ± 0.043
17,S76A,-0.096 ± 0.062
18,S76W,-0.495 ± 0.11
19,S76C,-0.341 ± 0.21
20,S76L,-0.112 ± 0.074
21,S76T,0.103 ± 0.09

row,Variant,abundance fitness
1,S76I,-0.426 ± 0.21
2,S76R,0.058 ± 0.054
3,S76K,0.12 ± 0.085
4,S76V,-0.015 ± 0.053
5,S76H,-0.196 ± 0.18
6,S76M,0.012 ± 0.091
7,S76Q,0.106 ± 0.11
8,S76D,0.089 ± 0.082
9,T74V,0.042 ± 0.064
10,T74S,-0.141 ± 0.1
11,T74H,0.231 ± 0.13
12,T74Y,-0.156 ± 0.19
13,T74W,-0.224 ± 0.08
14,T74C,-0.009 ± 0.11
15,T74K,0.04 ± 0.12
16,T74I,-0.479 ± 0.39
17,T74F,0.453 ± 0.28
18,T74E,-0.121 ± 0.087
19,T74G,-0.418 ± 0.066
20,T74Q,0.089 ± 0.086
21,T74M,-0.062 ± 0.095

row,Variant,abundance fitness
1,T74R,-0.009 ± 0.053
2,T74N,0.278 ± 0.22
3,S78Y,-0.008 ± 0.19
4,S78W,-0.189 ± 0.14
5,S78D,0.212 ± 0.16
6,S78M,-0.256 ± 0.23
7,S78V,0.021 ± 0.079
8,S78C,0.08 ± 0.16
9,S78F,-0.199 ± 0.17
10,S78G,0.153 ± 0.073
11,S78L,0.091 ± 0.11
12,S78A,-0.023 ± 0.096
13,S78Q,-0.158 ± 0.17
14,S78T,0.087 ± 0.11
15,S78R,-0.032 ± 0.082
16,S78P,-0.019 ± 0.1
17,S78N,0.256 ± 0.28
18,S78E,-0.045 ± 0.12
19,S78K,0.164 ± 0.13
